Reference: patent publication US11267875B2, “Humanized anti-DKK2 antibody and uses thereof” (YALE UNIVERSITY, priority 2015, dated 2022)

B1: Wnt5a: recombinant Wnt5a protein added to NK-92MI cells (protein, UniProt P41221 62-380, looked up)
Protein Wnt-5a: IIGAQPLCSQLAGLSQGQKKLCHLYQDHMQYIGEGAKTGIKECQYQFRHRRWNCSTVDNTSVFGRVMQIGSRETAFTYAVSAAGVVNAMSRACREGELSTCGCSRAARPKDLPRDWLWGGCGDNIDYGYRFAKEFVDARERERIHAKGSYESARILMNLHNNEAGRRTVYNLADVACKCHGVSGSCSLKTCWLQLADFRKVGDALKEKYDSAAAMRLNSRGKLVQVNSRFNSPTTQDLVYIDPSPDYCVRNESTGSLGTQGRLCNKTSEGMDGCELMCCGRGYDQFKTVQTERCHCKFHWCCYVKCKKCTEIVDQFVCK
B2: DKK2: recombinant DKK2 protein added to NK-92MI cells (protein)
chain: KLNSIKSSLGGETPGQAANRSAGMYQGLAFGGSKKGKNLGQAYPCSSDKECEVGRYCHSPHQGSSACMVCRRKKKRCHRDGMCCPSTRCNNGICIPVTESILTPHIPALDGTRHRDRNHGHYSNHDLGWQNLGRPHTKMSHIKGHEGDPCLRSSDCIEGFCCARHFWTKICKPVLHQGEVCTKQRKKGSHGLEIFQRCDCAKGLSCKVWKDATYSSKARLHVCQKI

System: NK-92MI cells
Experiment: Granzyme B expression in human NK cell line NK92 by flow cytometry
Type: cell-based
Settings: recombinant proteins 200 ng/ml, 24 hours
Procedure: Recombinant Wnt5a and DKK2 (200 ng/ml) were added to NK-92MI cells for 24 hours and Granzyme B contents were analyzed by flow cytometry.
Human NK cell line NK-92 and primary mouse NK cells from spleens and MC38-grafted tumors were tested for their expression of Granzyme and cytotoxic activity in the presence or absence of recombinant proteins of DKK2, Wnt3a, Wnt5a and DKK1, and in the presence or absence of Wnt inhibitors (including LGK-974) and GSK inhibitors (including CHIR 99021). In this manner, the regulation of NK cell activation by DKK2 and Wnt was assessed.

| Molecule | Granzyme B expression |
| --- | --- |
| B1 | inhibited Granzyme B expression |
| B2 | inhibited Granzyme B expression |
